Experiments:
[1] = biological target: T1, FcγRIIa R (human, UniProt P12318 34-217); assay: SPR; He/Con_2aR divided by He/Con_2b (FcγRIIb as reference)
T1 construct: extracellular domain; also called FcgRIIa R type; 2aR
T1 sequence (looked up): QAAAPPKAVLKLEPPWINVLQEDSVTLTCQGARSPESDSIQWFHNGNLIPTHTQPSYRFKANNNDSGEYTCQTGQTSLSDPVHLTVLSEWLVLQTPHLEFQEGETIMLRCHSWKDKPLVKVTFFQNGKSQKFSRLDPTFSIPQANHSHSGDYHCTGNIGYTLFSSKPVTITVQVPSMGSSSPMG

[2] = biological target: T1, FcγRIIa R; assay: SPR (Biacore), antibody captured, FcγR as analyte; relative binding
[3] = biological target: T2, FcγRIIb (human, UniProt P31994 43-217); assay: as above
T2 construct: extracellular domain; also called FcgRIIb; 2b
T2 sequence (looked up): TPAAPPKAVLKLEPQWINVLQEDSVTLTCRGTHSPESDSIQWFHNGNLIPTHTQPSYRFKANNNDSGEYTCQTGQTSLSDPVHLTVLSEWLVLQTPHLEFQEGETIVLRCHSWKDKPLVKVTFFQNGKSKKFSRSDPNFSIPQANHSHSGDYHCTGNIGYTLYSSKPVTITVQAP

[4] = biological target: T3, FcγRIIIa extracellular domain with C-terminal His tag (human, UniProt P08637 17-208); assay: SPR (Biacore), captured antibody, FcγR as analyte; relative to GpH7-A5/GpH7-B3/GpL16-k0 = 100
T3 construct: extracellular domain; also called FcgRIIIa; 3a; not shown: His tag at the C terminus
Method: (§1) Analysis of interaction between objective antibody and the FcγR was carried out using Biacore T100 (GE Healthcare). HBS-EP+ (GE Healthcare) was used as the running buffer, and the measurement temperature was set to 25° C. Chips produced by immobilizing the antigen peptide by the amine coupling method to a Series S Sencor Chip CM5 (GE Healthcare), or alternatively, chips produced by allowing preliminarily biotinylated antigen peptides to interact with and immobilize onto a Series S Sensor Chip SA (certified) (GE Healthcare) were used. Antibodies of interest were captured onto an antigen peptide-immobilized chip, and allowed to interact to each FcγR diluted with running buffer. To regenerate and repeatedly use the chip, the antibodies captured on the chip were washed off by reacting 10 mM glycine-HCl, pH 1.5.
(§2) The FcγR-binding activity of each antibody was assessed primarily using as an indicator the FcγR-binding activity and dissociation constant for FcγR.

[5] = biological target: T4, FcγRIIb extracellular domain with C-terminal His tag (human, UniProt P31994 43-217); assay: as above
T4 construct: extracellular domain; also called FcgRIIb; 2b; not shown: His tag at the C terminus
T4 sequence (looked up): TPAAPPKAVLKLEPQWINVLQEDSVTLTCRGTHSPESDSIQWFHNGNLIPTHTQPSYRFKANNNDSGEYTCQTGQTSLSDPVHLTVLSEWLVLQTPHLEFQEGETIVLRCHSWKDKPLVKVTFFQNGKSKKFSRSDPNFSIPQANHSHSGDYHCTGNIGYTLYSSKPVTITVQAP
Method: as §1, §2

T3 sequence (P08637 17-208): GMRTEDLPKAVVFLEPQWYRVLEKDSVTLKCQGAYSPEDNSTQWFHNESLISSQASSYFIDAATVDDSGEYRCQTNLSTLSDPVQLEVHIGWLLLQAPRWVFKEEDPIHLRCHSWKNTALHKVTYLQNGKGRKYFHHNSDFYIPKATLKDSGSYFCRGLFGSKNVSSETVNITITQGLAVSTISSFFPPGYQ

B1: GpH7-A5/GpH7-B3 variant S298_02A/GpL16-k0 (antibody, human IgG1, kappa)
heavy 1: not shown
heavy 2: not shown
light: DIVMTQSPLSLPVTPGEPASISCQASESLVHSNRNTYLHWYLQKPGQSPQLLIYKVSNRFSGVPDRFSGSGSGTDFTLKISRVEAEDVGVYYCSQNTHVPPTFGQGTKVEIERTVAAPSVFIFPPSDEQLKSGTASVVCLLNNFYPREAKVQWKVDNALQSGNSQESVTEQDSKDSTYSLSSTLTLSKADYEKHKVYACEVTHQGLSSPVTKSFNRGEC
notes: heterodimerized antibody, mutation in the GpH7-B3 chain only; also called He Ab
For B1, the “IIaR/IIb (He_2aR/2b)” value [1] was 1.24 ratio, the “He/Con_2aR (IIaR binding)” value [2] was 91.2 % of GpH7-A5/GpH7-B3/GpL16-k0 (=100) and the “He/Con_2b (IIb binding)” value [3] was 73.4 % of GpH7-A5/GpH7-B3/GpL16-k0 (=100).

B2: GpH7-A5/GpH7-B3 variant P238_03V/GpL16-k0 (heterodimerized antibody, He Ab) (antibody, human IgG1, kappa)
heavy 1: not shown
heavy 2: not shown
light: DIVMTQSPLSLPVTPGEPASISCQASESLVHSNRNTYLHWYLQKPGQSPQLLIYKVSNRFSGVPDRFSGSGSGTDFTLKISRVEAEDVGVYYCSQNTHVPPTFGQGTKVEIERTVAAPSVFIFPPSDEQLKSGTASVVCLLNNFYPREAKVQWKVDNALQSGNSQESVTEQDSKDSTYSLSSTLTLSKADYEKHKVYACEVTHQGLSSPVTKSFNRGEC
notes: Anti-glypican-3 IgG1; the alteration is in the GpH7-B3 chain only; also called P238V
With B2 the “He/Con_3a (IIIa binding)” value [4] was 43.8 % of HeCon Ab and the “He/Con_2b (IIb binding)” value [5] was 120 % of HeCon Ab.

B3: GpH7-A5/GpH7-B3 variant S298_07I/GpL16-k0 (antibody, human IgG1, kappa)
heavy 1: not shown
heavy 2: not shown
light: DIVMTQSPLSLPVTPGEPASISCQASESLVHSNRNTYLHWYLQKPGQSPQLLIYKVSNRFSGVPDRFSGSGSGTDFTLKISRVEAEDVGVYYCSQNTHVPPTFGQGTKVEIERTVAAPSVFIFPPSDEQLKSGTASVVCLLNNFYPREAKVQWKVDNALQSGNSQESVTEQDSKDSTYSLSSTLTLSKADYEKHKVYACEVTHQGLSSPVTKSFNRGEC
notes: as for B1
In the case of B3, the “IIaR/IIb (He_2aR/2b)” value [1] is reported as 1.28 ratio, the “He/Con_2aR (IIaR binding)” value [2] is reported as 90.1 % of GpH7-A5/GpH7-B3/GpL16-k0 (=100) and the “He/Con_2b (IIb binding)” value [3] is reported as 70.6 % of GpH7-A5/GpH7-B3/GpL16-k0 (=100).

B4: GpH7-A5/GpH7-B3 variant Y296_11K/GpL16-k0 (antibody, human IgG1, kappa)
heavy 1: not shown
heavy 2: not shown
light: DIVMTQSPLSLPVTPGEPASISCQASESLVHSNRNTYLHWYLQKPGQSPQLLIYKVSNRFSGVPDRFSGSGSGTDFTLKISRVEAEDVGVYYCSQNTHVPPTFGQGTKVEIERTVAAPSVFIFPPSDEQLKSGTASVVCLLNNFYPREAKVQWKVDNALQSGNSQESVTEQDSKDSTYSLSSTLTLSKADYEKHKVYACEVTHQGLSSPVTKSFNRGEC
notes: as for B1
With B4 the “IIaR/IIb (He_2aR/2b)” value [1] was 1.3 ratio, the “He/Con_2aR (IIaR binding)” value [2] was 94.3 % of GpH7-A5/GpH7-B3/GpL16-k0 (=100) and the “He/Con_2b (IIb binding)” value [3] was 72.8 % of GpH7-A5/GpH7-B3/GpL16-k0 (=100).

B5: GpH7-A5/GpH7-B3 variant S298_05P/GpL16-k0 (antibody, human IgG1, kappa)
heavy 1: not shown
heavy 2: not shown
light: DIVMTQSPLSLPVTPGEPASISCQASESLVHSNRNTYLHWYLQKPGQSPQLLIYKVSNRFSGVPDRFSGSGSGTDFTLKISRVEAEDVGVYYCSQNTHVPPTFGQGTKVEIERTVAAPSVFIFPPSDEQLKSGTASVVCLLNNFYPREAKVQWKVDNALQSGNSQESVTEQDSKDSTYSLSSTLTLSKADYEKHKVYACEVTHQGLSSPVTKSFNRGEC
notes: as for B1
For B5, the “IIaR/IIb (He_2aR/2b)” value [1] was 1.34 ratio, the “He/Con_2aR (IIaR binding)” value [2] was 16 % of GpH7-A5/GpH7-B3/GpL16-k0 (=100) and the “He/Con_2b (IIb binding)” value [3] was 11.9 % of GpH7-A5/GpH7-B3/GpL16-k0 (=100).

B6: GpH7-A5/GpH7-B3 variant S298_04F/GpL16-k0 (antibody, human IgG1, kappa)
heavy 1: not shown
heavy 2: not shown
light: DIVMTQSPLSLPVTPGEPASISCQASESLVHSNRNTYLHWYLQKPGQSPQLLIYKVSNRFSGVPDRFSGSGSGTDFTLKISRVEAEDVGVYYCSQNTHVPPTFGQGTKVEIERTVAAPSVFIFPPSDEQLKSGTASVVCLLNNFYPREAKVQWKVDNALQSGNSQESVTEQDSKDSTYSLSSTLTLSKADYEKHKVYACEVTHQGLSSPVTKSFNRGEC
notes: as for B1
With B6 the “IIaR/IIb (He_2aR/2b)” value [1] was 1.29 ratio, the “He/Con_2aR (IIaR binding)” value [2] was 84 % of GpH7-A5/GpH7-B3/GpL16-k0 (=100) and the “He/Con_2b (IIb binding)” value [3] was 65.4 % of GpH7-A5/GpH7-B3/GpL16-k0 (=100).

B7: GpH7-A5/GpH7-B3 variant G236_10E/GpL16-k0 (heterodimerized antibody, He Ab) (antibody, human IgG1, kappa)
heavy 1: not shown
heavy 2: not shown
light: DIVMTQSPLSLPVTPGEPASISCQASESLVHSNRNTYLHWYLQKPGQSPQLLIYKVSNRFSGVPDRFSGSGSGTDFTLKISRVEAEDVGVYYCSQNTHVPPTFGQGTKVEIERTVAAPSVFIFPPSDEQLKSGTASVVCLLNNFYPREAKVQWKVDNALQSGNSQESVTEQDSKDSTYSLSSTLTLSKADYEKHKVYACEVTHQGLSSPVTKSFNRGEC
notes: Anti-glypican-3 IgG1; the alteration is in the GpH7-B3 chain only; also called G236E
In the case of B7, the “He/Con_3a (IIIa binding)” value [4] is reported as 70.7 % of HeCon Ab and the “He/Con_2b (IIb binding)” value [5] is reported as 110 % of HeCon Ab.
